In data set [1] the test system is 18 different HLA-DR and -DQ proteins. Description: HLA class II peptide binding competition assay, panel of 18 alleles. The settings on record: good binders: IC50 less than 500 nM. Details: species or system human. As for the experimental part:
FIG. 17 provides a table showing the IC50 binding values for epitope peptides identified in bacterial proteases by the I-MUNE® assay system of the present invention. Values less than 500 nM are considered to be good binders and are highlighted in bold in the Table. Degeneracy indicates the number of HLA class II proteins that bind with an IC50 of less than 500 nM out of the 18 total alleles tested.
In addition to the above I-MUNE® assay, peptide binding assays were also performed. The peptide binding assay used during the development of the present invention is known in the art (Southwood et al., J. Immunol., 160:3363-3373 [1998]). Briefly, HLA-DR and -DQ molecules were purified from a panel of EBV transformed cell lines. A competition assay was performed with a characterized standard peptide, and the unknown peptide. The amount of unknown peptide required to compete 50% of the standard peptide binding was then determined (indicated as the IC50).
The IC50 for HLA class II protein binding was determined for peptide epitopes defined by the in two related industrial bacterial proteases (See, FIG. 17). The peptides were tested in a competition assay for binding to 18 different HLA-DR and -DQ proteins. […] This likely explains the association seen in the data for a response to this peptide with HLA-DR6(13) donors (p=0.00015; relative risk=7.22, n=113 donors tested). […]

Data set [2] has as its system CD4+ T-cells. The data set is described as follows: I-MUNE assay: CD4+ T-cell proliferation with dendritic cells and 15-mer peptides offset by 3 amino acids, community donors. To be noted: for Background % / Structure Value / Response/Peptide: Table 3; for Response/Peptide: donors with SI>2.95 per peptide; for Background +/- sd / Responses/peptide found: Table 5.
Procedure: Peptides were resuspended in DMSO at approximately 1 to 2 mg/ml, and stored at −70° C. prior to use. Each peptide was tested at least in duplicate, although for small peptide sets (e.g., Ber e 1), the peptides were routinely tested in triplicate.
Volunteer donor human blood buffy coat samples were obtained from two commercial sources (Stanford Blood Center, Palo Alto, Calif., and the Sacramento Medical Foundation, Sacramento, Calif.). Buffy coat samples were further purified by density separation. Each sample was HLA typed for HLA-DR and HLA-DQ using a commercial PCR-based kit (Bio-Synthesis).
Monocytes were purified by adherence to plastic in AIM V medium (Gibco/Life Technologies). Adherent cells were cultured in AIM V media containing 500 units/ml of recombinant human IL-4 (Endogen) and 800 units/ml recombinant human GM-CSF (Endogen) for 5 days. On day 5, recombinant human IL-1α (Endogen) and recombinant human TNF-α (Endogen) were added to 50 units/ml and 0.2 units/ml, respectively. On day 7, the fully matured dendritic cells were treated with 50 ug/ml mitomycin C (Sigma) for 1 hour at 37° C. Treated dendritic cells were dislodged with 50 mM EDTA in PBS, washed in AIM V medium, counted, and resuspended in AIM V media at 2×10^5 cells/ml.
CD4^+ T-cells were purified by negative selection from frozen aliquots of human peripheral blood mononuclear cells (PBMC) using Cellect CD4 columns (Cedarlane). CD4^+ T-cell populations were routinely >80% pure and >95% viable as judged by trypan blue (Sigma) exclusion. CD4^+ T-cells were resuspended in AIM V media at 2×10^6 cells per ml.
CD4^+ T-cells and dendritic cells were plated in round-bottomed 96 well format plates at 100 ul of each cell mix per well. Peptide was added to a final concentration of approximately 5 ug/ml in 0.25-0.5% DMSO. Control wells contained 0.5% DMSO without added peptide. Each peptide was tested in duplicate. Cultures were incubated at 37° C., in 5% CO2 for 5 days. On day 5, 0.5 uCi of tritiated thymidine (NEN DuPont,) was added to each well. On day 6, the cultures were harvested onto glass fiber mats using a TomTec manual harvester (TomTec), then processed for scintillation counting. Proliferation was assessed by determining the average counts per minute (CPM) value for each set of duplicate wells (TriLux Beta).
For each individual buffy coat sample, the average CPM values for all of the peptides were analyzed. The average CPM values for each peptide were divided by the average CPM value for the control (DMSO only) wells to determine the “stimulation index” (SI). Donors were tested with each peptide set until an average of at least two responses per peptide were compiled. The data for each protein was graphed showing the percent responders to each peptide within the set. A positive response was collated if the SI value was equal to or greater than 2.95. This value was chosen as it approximates a difference of three standard deviations in a normal population distribution. For each protein assessed, positive responses to individual peptides by individual donors were compiled. To determine the background response for a given protein, the percent responders for each peptide in the set were averaged and a standard deviation was calculated. SI values for each donor were compiled for each peptide set, and the percent of responders reported.
The subject of data set [3] is PBMC. The data set is described as follows: Maximum proliferative response of PBMC from 30 community donors to inactivated whole protein. Format: cell-based, human. To be noted: inactivated enzymes, 5 to 40 ug/ml, 30 donors; p<0.01; listed as protease variant. As for the experimental part:
FIG. 9 provides a graph showing the maximum proliferative responses of PBMC from 30 community donors to BPN′ Y217L (open triangles, structure value=0.53) and the […] BPN′ Y217L variant (closed squares, structure value=0.40). Each donor's maximum response is shown on the y-axis. An SI of 2.0 was the cut-off for a “positive” response. The difference in proliferative responses between BPN′ Y217L and the variant was p<0.01.
In these experiments, PMBC from thirty community donors were tested parametrically with either the whole protein parent enzyme (BPN′ Y217L) or the variant protease. The enzymes were inactivated, and tested over a dose range from 5 to 40 ug/ml. […] The difference between optimal SI values for the two proteins tested on these thirty donors was significant, with a two-tailed parametric t-test value of p<0.01.

Entries after “also recorded” stand apart in the source; their conditions may differ.

Consider “BPN' Y217L#37: 15-mer epitope peptide number 37 of BPN′ Y217L, second epitope (amino acids 109-123) (NGIEWAIANNMDVIN; UniProt P00782 216-230, looked up, fragment)”, for which the “HLA class II binding (in words)” value in data set [1] is “promiscuous”.

Take “BPN' Y217L #24: 15-mer epitope peptide number 24 of BPN′ Y217L, first epitope (amino acids 70-84) (GTVAALNNSIGVLGV; UniProt P00782 177-191, looked up, fragment)”: the “HLA class II binding (in words)” value in data set [1] is given as “binds most HLA class II molecules tested”.

As to E7 16: HPV E7 protein, HPV strain 16, in data set [2], the Background % stood at 4.33%, the “Structure Value” is recorded as 0.66 and the Response/Peptide amounted to 3.9.

Consider “hTpo: human thrombopoietin, a cytokine whose expression is restricted to the bone marrow”, for which, in data set [2], the “Structure value in words” value is reported as “comparatively high” and the “Background +/- sd” value is 2.54 +/− 2.23.

As to E7 18: HPV E7 protein, HPV strain 18, in data set [2], the Background % amounted to 3.55%, the “Structure Value” came out at 0.44 and the Response/Peptide came to 3.19.

In the case of “E6 18: human papillomavirus E6 protein, HPV strain 18”, in data set [2], the “Background response in words (compared with the 11 industrial enzymes)” value was “not significantly different”, the Background % turned out to be 4.23%, the “Structure Value” came to 0.79 and the Response/Peptide came to 2.32. Moreover, in data set [2], the “Background +/- sd” value is recorded as 4.23 +/− 4.25 and the Responses/peptide found is on record as 2.32.

B1: BPN′ variant: BPN′ Y217L variant where prominent responses to amino acids 70-84 and 109-123 were reduced to background level (protein, UniProt P00782 108-382, looked up, variant Y217L)
Subtilisin BPN': AQSVPYGVSQIKAPALHSQGYTGSNVKVAVIDSGIDSSHPDLKVAGGASMVPSETNPFQDNNSHGTHVAGTVAALNNSIGVLGVAPSASLYAVKVLGADGSGQYSWIINGIEWAIANNMDVINMSLGGPSGSAALKAAVDKAVASGVVVVAAAGNEGTSGSSSTVGYPGKYPSVIAVGAVDSSNQRASFSSVGPELDVMAPGVSIQSTLPGNKYGALNGTSMASPHVAGAAALILSKHPNWTNTQVRSSLENTTTKLGDSFYYGKGLINVQAAAQ
For B1, the “Proliferation compared with the parent protein (in words)” value in data set [3] was “significantly less proliferation; also recorded: induced less proliferation”. The “Prominent Epitope” value in data set [2] (Table 4, number of prominent epitopes) is listed as 0. Besides, the “Structure value of variant” value in data set [2] (calculated from the 113-donor dataset with responses to 70-84 and 109-123 reduced to background levels) is on record as 0.40.

B2: E7 31: HPV E7 protein, HPV strain 31 (protein, UniProt P17387 1-98, looked up)
Protein E7: MRGETPTLQDYVLDLQPEATDLHCYEQLPDSSDEEDVIDSPAGQAEPDTSNYNIVTFCCQCKSTLRLCVQSTQVDIRILQELLMGSFGIVCPNCSTRL
For B2, in data set [2], the Background % stood at 5.26%, the “Structure Value” is 0.78 and the Response/Peptide came to 3.1.

B3: E7 33: HPV E7 protein, HPV strain 33 (protein, UniProt P06429 1-97, looked up)
Protein E7: MRGHKPTLKEYVLDLYPEPTDLYCYEQLSDSSDEDEGLDRPDGQAQPATADYYIVTCCHTCNTTVRLCVNSTASDLRTIQQLLMGTVNIVCPTCAQQ
Regarding B3, in data set [2], the Background % amounted to 4.32%, the “Structure Value” stood at 0.54 and the Response/Peptide is 2.55.

B4: ALCALASE ®: ALCALASE® enzyme, commercially available from Novo; Swissprot accession number P00780 (protein, UniProt P00780 106-379, looked up)
Subtilisin Carlsberg: AQTVPYGIPLIKADKVQAQGFKGANVKVAVLDTGIQASHPDLNVVGGASFVAGEAYNTDGNGHGTHVAGTVAALDNTTGVLGVAPSVSLYAVKVLNSSGSGSYSGIVSGIEWATTNGMDVINMSLGGASGSTAMKQAVDNAYAKGVVVVAAAGNSGSSGNTNTIGYPAKYDSVIAVGAVDSNSNRASFSSVGAELEVMAPGAGVYSTYPTNTYATLNGTSMASPHVAGAAALILSKHPNLSASQVRNRLSSTATYLGSSFYYGKGLINVEAAAQ
B4: the “Prominent responses (amino acids / peptide positions)” value in data set [2] (regions of the protein sequence) is 19-33.

B5: E7 45: HPV E7 protein, HPV strain 45 (protein, UniProt P21736 1-106, looked up)
Protein E7: MHGPRETLQEIVLHLEPQNELDPVDLLCYEQLSESEEENDEADGVSHAQLPARRAEPQRHKILCVCCKCDGRIELTVESSAEDLRTLQQLFLSTLSFVCPWCATNQ
B5: in data set [2], the Background % came to 3.75%, the “Structure Value” came out at 0.76 and the Response/Peptide was found to be 2.44.

B6: sTNFR1: soluble tumor necrosis factor receptor 1, a soluble recombinant cytokine receptor molecule (protein, UniProt P19438 30-211, looked up)
extracellular domain: LVPHLGDREKRDSVCPQGKYIHPQNNSICCTKCHKGTYLYNDCPGPGQDTDCRECESGSFTASENHLRHCLSCSKCRKEMGQVEISSCTVDRDTVCGCRKNQYRHYWSENLFQCFNCSLCLNGTVHLSCQEKQNTVCTCHAGFFLRENECVSCSNCKKSLECTKLCLPQIENVKGTEDSGTT
modifications: extracellular domain
Regarding B6, the “Background +/- sd” value in data set [2] is listed as 2.23 +/− 1.95.

B7: E6 33: human papillomavirus E6 protein, HPV strain 33 (protein, UniProt P06427 1-149, looked up)
Protein E6: MFQDTEEKPRTLHDLCQALETTIHNIELQCVECKKPLQRSEVYDFAFADLTVVYREGNPFGICKLCLRFLSKISEYRHYNYSVYGNTLEQTVKKPLNEILIRCIICQRPLCPQEKKRHVDLNKRFHNISGRWAGRCAACWRSRRRETAL
With B7, in data set [2], the Background % came to 2.83%, the “Structure Value” came to 0.68 and the Response/Peptide turned out to be 1.97.

B8: E6 16: human papillomavirus E6 protein, HPV strain 16 (protein, UniProt P03126 1-158, looked up)
Protein E6: MHQKRTAMFQDPQERPRKLPQLCTELQTTIHDIILECVYCKQQLLRREVYDFAFRDLCIVYRDGNPYAVCDKCLKFYSKISEYRHYCYSLYGTTLEQQYNKPLCDLLIRCINCQKPLCPEEKQRHLDKKQRFHNIRGRWTGRCMSCCRSSRTRRETQL
For the molecule B8, in data set [2], the “Background response in words (compared with the 11 industrial enzymes)” value is “significantly higher”, the Background % stood at 7.12%, the “Structure Value” came out at 0.72 and the Response/Peptide stood at 3.92. Moreover, in data set [2], the “Background +/- sd” value is listed as 7.12 +/− 6.48 and the Responses/peptide found stood at 3.92.

B9: E6 31: human papillomavirus E6 protein, HPV strain 31 (protein, UniProt P17386 1-149, looked up)
Protein E6: MFKNPAERPRKLHELSSALEIPYDELRLNCVYCKGQLTETEVLDFAFTDLTIVYRDDTPHGVCTKCLRFYSKVSEFRWYRYSVYGTTLEKLTNKGICDLLIRCITCQRPLCPEEKQRHLDKKKRFHNIGGRWTGRCIACWRRPRTETQV
As for B9, in data set [2], the Background % was found to be 4.66%, the “Structure Value” was found to be 0.53 and the Response/Peptide is reported as 3.26.
